Data reported in patent publication US20060153840A1.

Target: UNC5H2 on human umbilical artery endothelial cells (HUAEC) (human) (UniProt Q8IZJ1)
Experiment: cell-based or functional assay

Chain of UniProt Q8IZJ1 (Q8IZJ1 other isoform, or with tags, fused parts or gaps limits assumed): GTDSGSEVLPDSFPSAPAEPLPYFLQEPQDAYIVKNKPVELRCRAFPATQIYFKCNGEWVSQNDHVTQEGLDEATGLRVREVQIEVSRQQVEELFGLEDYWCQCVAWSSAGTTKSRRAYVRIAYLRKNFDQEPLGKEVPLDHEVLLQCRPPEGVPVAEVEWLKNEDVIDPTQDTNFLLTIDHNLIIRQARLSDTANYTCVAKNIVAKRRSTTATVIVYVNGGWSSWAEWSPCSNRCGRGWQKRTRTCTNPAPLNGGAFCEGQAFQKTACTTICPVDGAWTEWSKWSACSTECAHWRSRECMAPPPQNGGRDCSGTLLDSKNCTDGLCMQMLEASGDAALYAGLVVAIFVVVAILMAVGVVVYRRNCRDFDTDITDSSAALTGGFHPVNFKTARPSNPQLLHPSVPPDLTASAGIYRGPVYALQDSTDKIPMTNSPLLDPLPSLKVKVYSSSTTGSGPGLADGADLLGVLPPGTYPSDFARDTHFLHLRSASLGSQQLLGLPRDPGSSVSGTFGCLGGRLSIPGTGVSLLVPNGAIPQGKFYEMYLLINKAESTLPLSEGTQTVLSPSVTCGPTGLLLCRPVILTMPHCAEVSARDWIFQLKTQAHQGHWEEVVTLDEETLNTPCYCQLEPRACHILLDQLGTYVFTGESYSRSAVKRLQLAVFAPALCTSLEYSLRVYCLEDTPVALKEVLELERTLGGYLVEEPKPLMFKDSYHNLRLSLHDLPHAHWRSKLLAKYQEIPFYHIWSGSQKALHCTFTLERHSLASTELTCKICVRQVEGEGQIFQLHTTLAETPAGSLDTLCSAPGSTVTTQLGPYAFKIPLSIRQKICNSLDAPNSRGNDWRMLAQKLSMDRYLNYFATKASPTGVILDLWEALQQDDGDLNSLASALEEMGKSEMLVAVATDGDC

decrease in transwell migration of HUAEC: 40%
Substance: Netrin-1 secreted by stably transfected 293 cells (ligand)
